# Experimental data published in paper PMC9388512 (Nature Communications, 2022).
# FAM = carboxyfluorescein label
# B1: 4E-BP1^4ALA, purified (natural protein, UniProt Q13541 1-118, looked up)
# chain: MSGGSSCSQTPSRAIPATRRVVLGDGVQLPPGDYSTAPGGTLFSTAPGGTRIIYDRKFLMECRNAPVTKAPPRDLPTIPGVTSPSSDEPPMEASQSHLRNSPEDKRAGGEESQFEMDI
# B2: FAM labelled eIF4G1 peptide (Ac-KKRYSRDFLLALQK-(FAM)-NH2) (peptide)
# peptide: Ac-KKRYSRDFLLALQK(FAM)-NH2
# notes: also called labelled peptide; tracer peptide; source: synthetic peptide; bought: Mimotopes
# Legend:
# [1] = molecular target: T1, eIF4E, purified recombinant human full-length (human, UniProt P06730 1-217); assay: SPR; 4E-BP1^4ALA over eIF4E amine-coupled to a CM5 chip; single or multi cycle not told; fitted with a 1:1 model (poor fit) and then with a 2-state model; n = 3; conditions: both partners purified
# T1 construct: eIF4E, human, full-length clone in pET11d; m7GTP was present at immobilisation and in the crystals; also called pure eIF4E; eukaryotic translation initiation factor 4E
# [2] = molecular target: T1, eIF4E, purified recombinant human …; assay: fluorescence polarisation; competition: eIF4E 200 nM, FAM-labelled eIF4G1 peptide 50 nM, VH domains titrated; PBS pH 7.4, 0.1% Tween 20; conditions: both partners purified
# T1 sequence (P06730 whole entry): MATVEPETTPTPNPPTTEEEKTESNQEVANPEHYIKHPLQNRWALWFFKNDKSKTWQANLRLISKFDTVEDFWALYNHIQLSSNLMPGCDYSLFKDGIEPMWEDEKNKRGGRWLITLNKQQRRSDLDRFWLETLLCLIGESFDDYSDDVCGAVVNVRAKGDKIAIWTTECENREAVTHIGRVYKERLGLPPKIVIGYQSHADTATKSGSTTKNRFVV
Binder,Kd [1] [nM],binding result [2]
B1,0.68,–
B2,–,binds
